Experimental findings from patent publication US12385058B2, “Herbicide tolerance protein, encoding gene thereof and use thereof” (Beijing Dabeinong Biotechnology Co., Ltd., priority 2018, dated 2025) are described below.

First the molecules themselves.
B1: ALT02M1-02: nucleotide sequence SEQ ID NO: 26 encoding ALT02M1, based on maize codon usage bias (nucleic acid)
DNA: ATGGAGACTGATAACGTGGAGCTGGCGCAGAGCAAGAGGAAGGTGGTTCTGGCTGAGCAGGGGTCGTTCTACATTGGGGGGCGGACTGTGACCGGGCCCGGCAAGTTCGACCCATCGAAGCCTGTCATTCCGTACTCTAACGAGGGCGCTACGTTCTACATCAACCAGATGTACGTGAATTTCCAGGCTCCCGTCCGCCCAAGGGGCCTCCCACTGGTGTTCTGGCACGGCGGGGGCCTGACAGGCCATATCTGGGAGTCCACTCCAGATGGCCGCCCAGGGTTCCAGACACTCTTCGTTCAGGACAGGCACACAGTGTACACTATTGATCAGCCAGGGAGGGGCAGGGGGAACATCCCTACCTTCAATGGCCCATTCGGGCAGCTGGAGGAGGAGTCCATCGTGAACACCGTCACGGCGAATTCCAGCAAGGAGGGGGCTTGGGTCAGGGACCGGCTCGGCCCGGCCCCAGGGCAGTTCTTCGAGAACTCTCAGTTCCCCCGGGGCTACGAGGATAATTACTTCAAGGAGATGGGCTTCTCACCATCCATCTCGTCTGACGAGATTGTCGATGCCGTGGTCAAGCTCGTTACCCACATCGGCCCTTGCGTTCTGGTGACGCATAGCGCTTCGGGCGTCCTCGGGATGAGGGTTGCTACACATGCGAAGAACGTTCGCGGCATCGTGGCTTACGAGCCGGCCACTTCCATTTTCCCCAAGGGCAAGGTGCCAGAGATCCCACCACTGGCCGACAAGAAGTCACAGATCTTCCCACCTTTCGAGATTCAGGAGTCCTACTTCAAGAAGCTCGCTAAGATCCCCATTCAGTTCGTGTTCGGCGACAACATTCCTAAGAATCCGAAGAGCGCGTACTGGTTCCTGGATTGGTGGCGCGTCACGCGCTACGCGCACTCTCTCTCACTGGAGGCTATCAACAAGCTCGGGGGCCAGGCCTCGCTCCTGGACCTCCCTACCGCTGGCCTGAGGGGGAACACCCATTTCCCGTTCACGGATCGGAACAATGTCCAGGTTGCGTCCCTCCTGAGCGATTTCCTCGGCAAGCACGGGCTGGATCAGAATGAGTCTAAGCTCGCTGCGGCGCTGGAGTGA
modifications: the ALT02M1-02 nucleotide sequence encoding the amino acid sequence corresponding to the herbicide tolerant protein ALT02M1 and based on the maize codon usage bias
B2: ALT02-02: nucleotide sequence SEQ ID NO: 22 encoding ALT02, based on maize codon usage bias (nucleic acid)
DNA: ATGGAGACTGATAACGTGGAGCTGGCGCAGAGCAAGAGGAAGGTGGTTCTGGCTGAGCAGGGGTCGTTCTACATTGGGGGGCGGACTGTGACCGGGCCCGGCAAGTTCGACCCATCGAAGCCTGTCATTCCGTACTCTAACGAGGGCGCTACGTTCTACATCAACCAGATGTACGTGAATTTCCAGGCTCCCGTCCGCCCAAGGGGCCTCCCACTGGTGTTCTGGCACGGCGGGGGCCTGACAGGCCATATCTGGGAGTCCACTCCAGATGGCCGCCCAGGGTTCCAGACACTCTTCGTTCAGGACAGGCACACAGTGTACACTATTGATCAGCCAGGGAGGGGCAGGGGGAACATCCCTACCTTCAATGGCCCATTCGGGCAGCTGGAGGAGGAGTCCATCGTGAACACCGTCACGGGCAATTCCAGCAAGGAGGGGGCTTGGGTCAGGGACCGGCTCGGCCCGGCCCCAGGGCAGTTCTTCGAGAACTCTCAGTTCCCCCGGGGCTACGAGGATAATTACTTCAAGGAGATGGGCTTCTCACCATCCATCTCGTCTGACGAGATTGTCGATGCCGTGGTCAAGCTCGTTACCCACATCGGCCCTTGCGTTCTGGTGACGCATAGCGCTTCGGGCGTCCTCGGGATGAGGGTTGCTACACATGCGAAGAACGTTCGCGGCATCGTGGCTTACGAGCCGGCCACTTCCATTTTCCCCAAGGGCAAGGTGCCAGAGATCCCACCACTGGCCGACAAGAAGTCACAGATCTTCCCACCTTTCGAGATTCAGGAGTCCTACTTCAAGAAGCTCGCTAAGATCCCCATTCAGTTCGTGTTCGGCGACAACATTCCTAAGAATCCGAAGAGCGCGTACTGGTTCCTGGATTGGTGGCGCGTCACGCGCTACGCGCACTCTCTCTCACTGGAGGCTATCAACAAGCTCGGGGGCCAGGCCTCGCTCCTGGACCTCCCTACCGCTGGCCTGAGGGGGAACACCCATTTCCCGTTCACGGATCGGAACAATGTCCAGGTTGCGTCCCTCCTGAGCGATTTCCTCGGCAAGCACGGGCTGGATCAGAATGAGTCTAAGCTCGCTGCGGCGCTGGAGTGA
modifications: the ALT02-02 nucleotide sequence encoding the amino acid sequence corresponding to the herbicide tolerant protein ALT02 and based on the maize codon usage bias
B3: ALT02M2-02: nucleotide sequence SEQ ID NO: 30 encoding ALT02M2, based on maize codon usage bias (nucleic acid)
DNA: ATGGAGACTGATAACGTGGAGCTGGCGCAGAGCAAGAGGAAGGTGGTTCTGGCTGAGCAGGGGTCGTTCTACATTGGGGGGCGGACTGTGACCGGGCCCGGCAAGTTCGACCCATCGAAGCCTGTCATTCCGTACTCTAACGAGGGCGCTACGTTCTACATCAACCAGATGTACGTGAATTTCCAGGCTCCCGTCCGCCCAAGGGGCCTCCCACTGGTGTTCTGGCACGGCGGGGGCCTGACAGGCCATATCTGGGAGTCCACTCCAGATGGCCGCCCAGGGTTCCAGACACTCTTCGTTCAGGACAGGCACACAGTGTACACTATTGATCAGCCAGGGAGGGGCAGGGGGAACATCCCTACCTTCAATGGCCCATTCGGGCAGCTGGAGGAGGAGTCCATCGTGAACACCGTCACGGGCAATGTGAGCAAGGAGGGGGCTTGGGTCAGGGACCGGCTCGGCCCGGCCCCAGGGCAGTTCTTCGAGAACTCTCAGTTCCCCCGGGGCTACGAGGATAATTACTTCAAGGAGATGGGCTTCTCACCATCCATCTCGTCTGACGAGATTGTCGATGCCGTGGTCAAGCTCGTTACCCACATCGGCCCTTGCGTTCTGGTGACGCATAGCGCTTCGGGCGTCCTCGGGATGAGGGTTGCTACACATGCGAAGAACGTTCGCGGCATCGTGGCTTACGAGCCGGCCACTTCCATTTTCCCCAAGGGCAAGGTGCCAGAGATCCCACCACTGGCCGACAAGAAGTCACAGATCTTCCCACCTTTCGAGATTCAGGAGTCCTACTTCAAGAAGCTCGCTAAGATCCCCATTCAGTTCGTGTTCGGCGACAACATTCCTAAGAATCCGAAGAGCGCGTACTGGTTCCTGGATTGGTGGCGCGTCACGCGCTACGCGCACTCTCTCTCACTGGAGGCTATCAACAAGCTCGGGGGCCAGGCCTCGCTCCTGGACCTCCCTACCGCTGGCCTGAGGGGGAACACCCATTTCCCGTTCACGGATCGGAACAATGTCCAGGTTGCGTCCCTCCTGAGCGATTTCCTCGGCAAGCACGGGCTGGATCAGAATGAGTCTAAGCTCGCTGCGGCGCTGGAGTGA
modifications: the ALT02M2-02 nucleotide sequence encoding the amino acid sequence corresponding to the herbicide tolerant protein ALT02M2 and based on the maize codon usage bias
B4: ALT02M3-02: nucleotide sequence SEQ ID NO: 34 encoding ALT02M3, based on maize codon usage bias (nucleic acid)
DNA: ATGGAGACTGATAACGTGGAGCTGGCGCAGAGCAAGAGGAAGGTGGTTCTGGCTGAGCAGGGGTCGTTCTACATTGGGGGGCGGACTGTGACCGGGCCCGGCAAGTTCGACCCATCGAAGCCTGTCATTCGGGCGTCTAACGAGGGCGCTACGTTCTACATCAACCAGATGTACGTGAATTTCCAGGCTCCCGTCCGCCCAAGGGGCCTCCCACTGGTGTTCTGGCACGGCGGGGGCCTGACAGGCCATATCTGGGAGTCCACTCCAGATGGCCGCCCAGGGTTCCAGACACTCTTCGTTCAGGACAGGCACACAGTGTACACTATTGATCAGCCAGGGAGGGGCAGGGGGAACATCCCTACCTTCAATGGCCCATTCGGGCAGCTGGAGGAGGAGTCCATCGTGAACACCGTCACGGCGAATGTGAGCAAGGAGCGGGCTTGGGTCAGGGACCGGCTCGGCCCGGCCCCAGGGCAGTTCTTCGAGAACTCTCAGTTCCCCCGGGGCTACGAGGATAATTACTTCAAGGAGATGGGCTTCTCACCATCCATCTCGTCTGACGAGATTGTCGATGCCGTGGTCAAGCTCGTTACCCACATCGGCCCTTGCGTTCTGGTGACGCATAGCGCTTCGGGCGTCCTCGGGATGAGGGTTGCTACACATGCGAAGAACGTTCGCGGCATCGTGGCTTACGAGCCGGCCACTTCCATTTTCCCCAAGGGCAAGGTGCCAGAGATCCCACCACTGGCCGACAAGAAGTCACAGATCTTCCCACCTTTCGAGATTCAGGAGTCCTACTTCAAGAAGCTCGCTAAGATCCCCATTCAGTTCGTGTTCGGCGACAACATTCCTAAGAATCCGAAGAGCGCGTACTGGTTCCTGGATTGGTGGCGCGTCACGCGCTACGCGCACTCTCTCTCACTGGAGGCTATCAACAAGCTCGGGGGCCAGGCCTCGCTCCTGGACCTCCCTACCGCTGGCCTGAGGGGGAACACCCATTTCCCGTTCACGGATCGGAACAATGTCCAGGTTGCGTCCCTCCTGAGCGATTTCCTCGGCAAGCACGGGCTGGATCAGAATGAGTCTAAGCTCGCTGCGGCGCTGGAGTGA
modifications: the ALT02M3-02 nucleotide sequence encoding the amino acid sequence corresponding to the herbicide tolerant protein ALT02M3 and based on the maize codon usage bias

In this data set the test system is maize plants. Description: Herbicide tolerance of transgenic maize T1 plants (spraying, damage degree). The class given is in vivo. Particulars: sprayed with tribenuron-methyl 144 g ai/ha, eight-fold field concentration. The protocol: The degree of damage caused by the herbicide was measured for each plant according to the plant growth status 3 days after spraying (3 DAT), 7 days after spraying (7 DAT), 14 days after spraying (14 DAT) and 21 days after spraying (21 DAT): a growth status equivalent to that of the untreated plants is defined as having a damage degree of 0%; the case where leaves are locally chlorotic and yellow but the normal plant growth is substantially not affected is defined as having a damage degree of 50%; and the case where the whole plant is purple and dying is defined as having a damage degree of 100%. The maize plants into which the ALT02M1-02 nucleotide sequence was introduced were of three strains in total (S15, S16 and S17), the maize plants into which the ALT02M2-02 nucleotide sequence was introduced were of three strains in total (S18, S19 and S20), the maize plants into which the ALT02M3-02 nucleotide sequence was introduced were of three strains in total (S21, S22 and S23), the maize plants into which the ALT02-02 nucleotide sequence was introduced were of three strains in total (S24, S25 and S26), the control maize plants were of two strains in total (S27 and S28), and the wild-type maize plants were of one strain in total (CK2); and 10-15 plants were selected from each strain and tested.
For B1, the “herbicide tolerance compared with maize plants into which ALT02-02 was introduced” value was “significantly increased tolerance to benzenesulfonic acid” and the “herbicide tolerance imparted to transgenic maize plants” value (from here on “herbicide tolerance imparted”) was “impart transgenic maize plants with the tolerance to benzenesulfonic acid”. Regarding B2, the “herbicide tolerance imparted” value is “impart transgenic maize plants with the tolerance to benzenesulfonic acid”. Take B3: the “herbicide tolerance compared with maize plants into which ALT02-02 was introduced” value was “significantly increased tolerance to benzenesulfonic acid” and the “herbicide tolerance imparted” value is “impart transgenic maize plants with the tolerance to benzenesulfonic acid”. For B4, in that order: “significantly increased tolerance to benzenesulfonic acid” and “impart transgenic maize plants with the tolerance to benzenesulfonic acid”.
